Assay results reported in the supplement of paper PMC9112550, “Optimization of the antimicrobial peptide Bac7 by deep mutational scanning” (BMC Biology, 2022).

tested on: Escherichia coli TOP10; experiment: shrunken log2 fold change of peptide-encoding DNA abundance (4.5 h post-induction vs induction); higher = less antimicrobial activity (less host growth inhibition); details: time post-induction: 4.5 h; library: site-saturation at positions 5, 18, 19, 20
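Note: peptides expressed intracellularly from a pBAD plasmid library in pooled LB shake-flask culture, induced with 0.3% L-arabinose, DNA abundance read by NGS, three biological replicates, DESeq2 with apeglm shrinkage.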

Sequence	shrunken log2 fold change
RRIRNRPPRLPRPRPRPMHCPRP	-0.0148
RRIRGRPPRLPRPRPRPMGWPRP	0.967
RRIRGRPPRLPRPRPRPPFNPRP	1.66
RRIRMRPPRLPRPRPRPTLFPRP	0.428
RRIRSRPPRLPRPRPRPRSWPRP	0.0511
RRIRGRPPRLPRPRPRPWNWPRP	0.232
RRIRGRPPRLPRPRPRPEGTPRP	1.55
RRIRKRPPRLPRPRPRPFRLPRP	0.0113
RRIRFRPPRLPRPRPRPSSKPRP	-0.32
RRIRFRPPRLPRPRPRPCPLPRP	-0.183
RRIRNRPPRLPRPRPRPTFCPRP	-0.379
RRIRHRPPRLPRPRPRPKPIPRP	-0.0951
RRIRLRPPRLPRPRPRPKWFPRP	0.154
RRIRNRPPRLPRPRPRPIWDPRP	-0.14
RRIRHRPPRLPRPRPRPKLRPRP	-0.382
RRIRARPPRLPRPRPRPLMYPRP	-0.165
RRIRKRPPRLPRPRPRPNMVPRP	0.114
RRIRCRPPRLPRPRPRPLSFPRP	-0.398
RRIRRRPPRLPRPRPRPVMTPRP	0.573
RRIRLRPPRLPRPRPRPCGFPRP	-0.0181
RRIRGRPPRLPRPRPRPRQPPRP	0.283
RRIRIRPPRLPRPRPRPANCPRP	-1.1
RRIRCRPPRLPRPRPRPALDPRP	0.356
RRIRYRPPRLPRPRPRPFFFPRP	-0.253
RRIRCRPPRLPRPRPRPVECPRP	-0.142

Sequence	shrunken log2 fold change
RRIRCRPPRLPRPRPRPMPNPRP	-0.368
RRIRWRPPRLPRPRPRPHECPRP	-0.0602
RRIRDRPPRLPRPRPRPYTWPRP	0.00489
RRIRWRPPRLPRPRPRPWYQPRP	-0.179
RRIRKRPPRLPRPRPRPQEEPRP	0.0428
RRIRFRPPRLPRPRPRPCFFPRP	-0.378
RRIRERPPRLPRPRPRPGSPPRP	-0.0668
RRIRFRPPRLPRPRPRPDGRPRP	0.023
RRIRWRPPRLPRPRPRPPPEPRP	0.822
RRIRWRPPRLPRPRPRPRMGPRP	0.357
RRIRWRPPRLPRPRPRPWPFPRP	0.481
RRIRPRPPRLPRPRPRPCMPPRP	-0.534
RRIRRRPPRLPRPRPRPFGYPRP	-0.018
RRIRQRPPRLPRPRPRPLMSPRP	-0.0453
RRIRWRPPRLPRPRPRPKDKPRP	0.077
RRIRPRPPRLPRPRPRPCEDPRP	-0.119
RRIRPRPPRLPRPRPRPVFQPRP	0.315
RRIRLRPPRLPRPRPRPQARPRP	0.169
RRIRQRPPRLPRPRPRPKKSPRP	-0.197
RRIRIRPPRLPRPRPRPMPMPRP	-0.0159
RRIRQRPPRLPRPRPRPQMPPRP	-1.26
RRIRRRPPRLPRPRPRPYAQPRP	-0.252
RRIRDRPPRLPRPRPRPQPMPRP	-0.0809
RRIRIRPPRLPRPRPRPHTLPRP	-0.436
RRIRYRPPRLPRPRPRPAVPPRP	-0.625

Sequence	shrunken log2 fold change
RRIRSRPPRLPRPRPRPNAMPRP	-0.0346
RRIRERPPRLPRPRPRPFMPPRP	-0.777
RRIRQRPPRLPRPRPRPNPMPRP	-0.00515
RRIRRRPPRLPRPRPRPPRTPRP	1.16
RRIRGRPPRLPRPRPRPNHVPRP	0.425
RRIRSRPPRLPRPRPRPEINPRP	0.0112
RRIRWRPPRLPRPRPRPNHAPRP	0.601
RRIRHRPPRLPRPRPRPGDSPRP	-0.53
RRIRDRPPRLPRPRPRPAVRPRP	-0.0321
RRIRHRPPRLPRPRPRPKHPPRP	-0.0271
RRIRPRPPRLPRPRPRPHKEPRP	0.163
RRIRWRPPRLPRPRPRPGSLPRP	0.0223
RRIRTRPPRLPRPRPRPGLLPRP	0.0639
RRIRSRPPRLPRPRPRPFTSPRP	0.0532
RRIRRRPPRLPRPRPRPSQVPRP	0.0533
RRIRYRPPRLPRPRPRPQATPRP	-0.108
RRIRLRPPRLPRPRPRPSQNPRP	-0.278
RRIRFRPPRLPRPRPRPMNDPRP	-0.122
RRIRHRPPRLPRPRPRPGDYPRP	-0.212
RRIRARPPRLPRPRPRPMHCPRP	0.0899
RRIRARPPRLPRPRPRPDWHPRP	0.136
RRIRDRPPRLPRPRPRPVNAPRP	0.188
RRIRQRPPRLPRPRPRPTNLPRP	-0.0248
RRIRYRPPRLPRPRPRPPAVPRP	-0.143
RRIRARPPRLPRPRPRPAGFPRP	0.365
